{"source": "paper PMC7195491", "key": {"[1]": {"target": "DIP-α (Dpr Interacting Protein alpha), extracellular region (Drosophila melanogaster) (UniProt Q9W4R3)", "sequence (Q9W4R3 entry or part of it)": "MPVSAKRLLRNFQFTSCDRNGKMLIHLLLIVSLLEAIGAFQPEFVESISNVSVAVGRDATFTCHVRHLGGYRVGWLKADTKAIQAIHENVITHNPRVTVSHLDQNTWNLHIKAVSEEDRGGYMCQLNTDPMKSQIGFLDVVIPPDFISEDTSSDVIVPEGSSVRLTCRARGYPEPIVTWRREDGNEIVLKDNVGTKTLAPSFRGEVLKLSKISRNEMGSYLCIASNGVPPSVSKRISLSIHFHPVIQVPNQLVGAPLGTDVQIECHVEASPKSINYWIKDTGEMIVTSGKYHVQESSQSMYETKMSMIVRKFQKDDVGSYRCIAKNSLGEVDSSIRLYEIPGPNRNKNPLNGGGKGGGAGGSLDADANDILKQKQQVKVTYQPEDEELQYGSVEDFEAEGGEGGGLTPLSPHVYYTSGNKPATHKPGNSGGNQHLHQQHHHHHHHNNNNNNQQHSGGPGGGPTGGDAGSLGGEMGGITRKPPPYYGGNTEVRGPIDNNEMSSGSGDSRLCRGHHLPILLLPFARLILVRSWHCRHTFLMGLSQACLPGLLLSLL", "assay": "SPR; Biacore T100, CM4 chip; DIPs and DIP mutants immobilised by amine coupling, Dprs as analytes; 25 °C; 10 mM Tris-HCl pH 7.2, 150 mM NaCl, 1 mM EDTA, 1 mg/mL BSA, 0.01% Tween-20; duplicate responses fit globally to a 1:1 model; Rmax fixed for KDs > 100 μM, lower limit listed for KDs > 300 μM"}, "[2]": {"target": "DIP-β (isoformG), extracellular region (Drosophila melanogaster)", "assay": "SPR; Biacore T100, CM4 chip; DIPs and DIP mutants immobilised by amine coupling, Dprs as analytes; 25 °C; 10 mM Tris-HCl pH 7.2, 150 mM NaCl, 1 mM EDTA, 1 mg/mL BSA, 0.01% Tween-20; duplicate responses fit globally to a 1:1 model; Rmax fixed for KDs > 100 μM, lower limit listed for KDs > 300 μM"}, "[3]": {"target": "DIP-α K10Q {K81Q}, extracellular region (Drosophila melanogaster) (UniProt Q9W4R3)", "assay": "AUC; sedimentation equilibrium, 25 °C, 10 mM Bis-Tris pH 6.6, 150 mM NaCl, detection at 280 nm; global fit (HeteroAnalysis); dimer to monomers; mean of two independent measurements"}, "[4]": {"target": "DIP-γ (Drosophila melanogaster)", "assay": "SPR; Biacore T100, CM4 chip; DIPs and DIP mutants immobilised by amine coupling (760-980 RU), Dprs and Dpr mutants as analytes (three-fold dilution series, up to 81 μM, in some cases up to 27 or 9 μM); 25 °C; 10 mM Tris-HCl pH 7.2, 150 mM NaCl, 1 mM EDTA, 1 mg/mL BSA, 0.01% Tween-20; equilibrium fit, 1:1 model; for KDs > 300 μM a lower limit is listed"}, "[5]": {"target": "DIP-α (Dpr Interacting Protein alpha), extracellular region (Drosophila melanogaster) (UniProt Q9W4R3)", "assay": "SPR; Biacore T100, CM4 chip; DIPs and DIP mutants immobilised by amine coupling, Dprs as analytes; 25 °C; 10 mM Tris-HCl pH 7.2, 150 mM NaCl, 1 mM EDTA, 1 mg/mL BSA, 0.01% Tween-20; duplicate responses fit globally to a 1:1 model; Rmax fixed for KDs > 100 μM, lower limit listed for KDs > 300 μM", "remark": "listed apart in the source"}, "[6]": {"target": "DIP-α (Drosophila melanogaster)", "assay": "SPR; Biacore T100, CM4 chip; DIPs and DIP mutants immobilised by amine coupling (760-980 RU), Dprs and Dpr mutants as analytes (three-fold dilution series, up to 81 μM, in some cases up to 27 or 9 μM); 25 °C; 10 mM Tris-HCl pH 7.2, 150 mM NaCl, 1 mM EDTA, 1 mg/mL BSA, 0.01% Tween-20; equilibrium fit, 1:1 model; for KDs > 300 μM a lower limit is listed"}, "[7]": {"target": "DIP-α K10Q S32D {K81Q S133D}, extracellular region (Drosophila melanogaster) (UniProt Q9W4R3)", "assay": "AUC; sedimentation equilibrium, 25 °C, 10 mM Bis-Tris pH 6.6, 150 mM NaCl, detection at 280 nm; global fit (HeteroAnalysis); dimer to monomers; mean of two independent measurements"}, "[8]": {"target": "DIP-α K10Q G4S {K81Q G74S}, extracellular region (Drosophila melanogaster) (UniProt Q9W4R3)", "assay": "AUC; sedimentation equilibrium, 25 °C, 10 mM Bis-Tris pH 6.6, 150 mM NaCl, detection at 280 nm; global fit (HeteroAnalysis); dimer to monomers; mean of two independent measurements"}}, "note": "Read-outs that look alike come from different tables or passages of the source."}
{"substance": "Dpr11 K31V E29Q {K207V E205Q}, extracellular region (from UniProt Q8MRE6 1-360) (domain or fragment)", "values": [{"measurement": "Kd", "setting": "[1]", "result": "> 300", "unit": "µM"}, {"measurement": "Kd", "setting": "[2]", "result": "> 300", "unit": "µM"}]}
{"substance": "DIP-α K10Q {K81Q}, extracellular region (from UniProt Q9W4R3 1-554) (domain or fragment)", "values": [{"measurement": "Kd", "setting": "[3]", "result": 19.7, "unit": "µM"}, {"measurement": "stoichiometry N", "setting": "[3]", "result": 2}]}
{"substance": "Dpr11 K31V (domain or fragment)", "values": [{"measurement": "Kd", "setting": "[4]", "result": 22.7, "unit": "µM"}]}
{"substance": "Dpr10 Q26D {Q138D}, extracellular region (from UniProt M9PF17 1-362) (domain or fragment)", "values": [{"measurement": "Kd", "setting": "[5]", "result": 19.3, "unit": "µM"}]}
{"substance": "Dpr11 K31V,E29Q (domain or fragment)", "values": [{"measurement": "Kd", "setting": "[4]", "result": 131, "unit": "µM"}]}
{"substance": "Dpr10 V31K (domain or fragment)", "values": [{"measurement": "fold increase of KD over wild-type Dpr10", "setting": "[6]", "result": 10, "unit": "fold"}]}
{"substance": "DIP-α K10Q S32D {K81Q S133D}, extracellular region (from UniProt Q9W4R3 1-554) (domain or fragment)", "values": [{"measurement": "Kd", "setting": "[7]", "result": 64.4, "unit": "µM"}, {"measurement": "stoichiometry N", "setting": "[7]", "result": 2}]}
{"substance": "Dpr10 V31K Q29E (domain or fragment)", "values": [{"measurement": "fold increase of KD over the V31K single mutant", "setting": "[6]", "result": 2, "unit": "fold"}]}
{"substance": "Dpr10 V31K {V144K}, extracellular region (from UniProt M9PF17 1-362) (domain or fragment)", "values": [{"measurement": "Kd", "setting": "[2]", "result": 52.3, "unit": "µM"}]}
{"substance": "Dpr11 K31V {K207V}, extracellular region (from UniProt Q8MRE6 1-360) (domain or fragment)", "values": [{"measurement": "Kd", "setting": "[1]", "result": "> 300", "unit": "µM"}, {"measurement": "Kd", "setting": "[2]", "result": "> 300", "unit": "µM"}]}
{"substance": "Dpr6 (domain or fragment)", "values": [{"measurement": "Kd", "setting": "[6]", "result": 2, "unit": "µM"}]}
{"substance": "DIP-α K10Q G4S {K81Q G74S}, extracellular region (from UniProt Q9W4R3 1-554) (domain or fragment)", "values": [{"measurement": "Kd", "setting": "[8]", "result": 46.3, "unit": "µM"}, {"measurement": "stoichiometry N", "setting": "[8]", "result": 2}]}
{"substance": "Dpr10 V31K Q29E {V144K Q142E}, extracellular region (from UniProt M9PF17 1-362) (domain or fragment)", "values": [{"measurement": "Kd", "setting": "[2]", "result": 71.6, "unit": "µM"}]}
